This note sets out measurements from IntAct's records for PubMed 31515488.

To fix the notation:
B1: Cyclin-dependent kinase 4 (Homo sapiens), P11802 (parent)
chain: MATSRYEPVAEIGVGAYGTVYKARDPHSGHFVALKSVRVPNGGGGGGGLPISTVREVALLRRLEAFEHPNVVRLMDVCATSRTDREIKVTLVFEHVDQDLRTYLDKAPPPGLPAETIKDLMRQFLRGLDFLHANCIVHRDLKPENILVTSGGTVKLADFGLARIYSYQMALTPVVVTLWYRAPEVLLQSTYATPVDMWSVGCIFAEMFRRKPLFCGNSEADQLGKIFDLIGLPPEDDWPRDVSLPRGAFPPRGPRPVQSVVPEMEESGAQLLLEMLTFNPHKRISAFRALQHSYLHKDEGNPE
B2: Atos homolog protein B (Homo sapiens), Q7L5A3 (parent)
chain: MRHVQAEPSPSSEPEAGPSQPPVRQGALQGGLLMGYSPAGGATSPGVYQVSIFSPPAGTSEPHRALKRQAPSTEGPRELKRGPGLGAREGLPPEEPSTVGLLGPEGPGLGLGVASQHFSHRGLCVVEQRSSVTSSWTSGAWSPPCPPSNASCNTLHTRDWASPDPGGQGSLGESPGPAPPGQLHTLDTDLHSLAQIGGKSPVAGVGNGGSLWPRESPGTANGHSPEHTPPGPGPPGPCPTKRRLLPAGEAPDVSSEEEGPAPRRRRGSLGHPTAANSSDAKATPFWSHLLPGPKEPVLDPTDCGPMGRRLKGARRLKLSPLRSLRKGPGLLSPPSASPVPTPAVSRTLLGNFEESLLRGRFAPSGHIEGFTAEIGASGSYCPQHVTLPVTVTFFDVSEQNAPAPFLGIVDLNPLGRKGYSVPKVGTVQVTLFNPNQTVVKMFLVTFDFSDMPAAHMTFLRHRLFLVPVGEEGNANPTHRLLCYLLHLRFRSSRSGRLSLHGDIRLLFSRRSLELDTGLPYELQAVTEAPHNPRYSPLP
B3: Isoform 1 of EF-hand domain-containing family member C2 (Homo sapiens), Q5JST6-1 (parent)
chain: MALPLLPGNSFNRNVGKEKFHKSQHWGFCNNVMMLVSDEKPGIGGEPLLGQKIKPKCSIYPKGDGSDVPSWVAFDKQVLSFDAYLEEEVLDKSQTNYRIRYYKIYFYPEDDTIQVNEPEVKNSGLLQGTSIRRHRITLPPPDEDQFYTVYHFNVGTEVVFYGRTFKIYDCDAFTRNFLRKIGVKVNPPVQCPEDPYMKIRREVVEHVEPLRPYESLDTLKQFLQYHGKILCFFCLWDDSVSMFGDRRELILHYFLCDDTIEIKELLPHSSGRDALKMFLRRSKLPKNCPPRVYQPGQITDRAVLNSYGDFIKNQADGYLFDRYKLGKVDQEFYKDSDLSLGVTINVWGRKVLLYDCDEFTKSYYKSKYGIENFTSVSCKPPSPPPKIERKFPPYNGFGSEEDSLRNCIDLKPTPHRRNFKKFMEKDSYGSKSNILRFFAKLVTDKCVDLDRMFVISYYLGDDTISVFEPIERNSGIAGGMFLKRSRVKKPGQEVFKSELSEYIKAEELYIGVTVNVNGYLFRLLNADEYTLNYMEQNTDKYPFSNLKLALQKLKQEEGKSRELKQVFKAADSKHTNMVDYNTFRDILMSLTVGNLAEQEFVTIARHYRVPEGTCSDMDFLIALAHEKFKKNMFENFDTFIYSCVYEDREKKNVLPTKDIKRLCKSSRLPLSDDLLESLLSRFEDSEKQIDYKSFFSALNWRKNPVPELQPASYLKERCEDVWLGMPSPIPAKYIDYWTFLKDAFGLEEE
B4: ADP-ribosylation factor-like protein 11 (Homo sapiens), Q969Q4 (parent)
chain: MGSVNSRGHKAEAQVVMMGLDSAGKTTLLYKLKGHQLVETLPTVGFNVEPLKAPGHVSLTLWDVGGQAPLRASWKDYLEGTDILVYVLDSTDEARLPESAAELTEVLNDPNMAGVPFLVLANKQEAPDALPLLKIRNRLSLERFQDHCWELRGCSALTGEGLPEALQSLWSLLKSRSCMCLQARAHGAERGDSKRS
partner: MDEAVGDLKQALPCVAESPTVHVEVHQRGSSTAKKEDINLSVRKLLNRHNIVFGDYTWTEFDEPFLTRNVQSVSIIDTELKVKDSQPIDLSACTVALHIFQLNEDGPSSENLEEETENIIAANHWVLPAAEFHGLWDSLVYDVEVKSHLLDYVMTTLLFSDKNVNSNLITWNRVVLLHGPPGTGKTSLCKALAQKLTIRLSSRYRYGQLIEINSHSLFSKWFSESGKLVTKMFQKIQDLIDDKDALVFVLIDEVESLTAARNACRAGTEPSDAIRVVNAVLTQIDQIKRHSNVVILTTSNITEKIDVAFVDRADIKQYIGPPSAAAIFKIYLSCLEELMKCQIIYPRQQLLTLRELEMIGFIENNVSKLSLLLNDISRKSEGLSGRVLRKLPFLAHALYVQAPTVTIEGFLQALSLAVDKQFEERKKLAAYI
B5: Rho guanine nucleotide exchange factor 3 (Homo sapiens), Q9NR81 (parent)
chain: MVAKDYPFYLTVKRANCSLELPPASGPAKDAEEPSNKRVKPLSRVTSLANLIPPVKATPLKRFSQTLQRSISFRSESRPDILAPRPWSRNAAPSSTKRRDSKLWSETFDVCVNQMLTSKEIKRQEAIFELSQGEEDLIEDLKLAKKAYHDPMLKLSIMTEQELNQIFGTLDSLIPLHEELLSQLRDVRKPDGSTEHVGPILVGWLPCLSSYDSYCSNQVAAKALLDHKKQDHRVQDFLQRCLESPFSRKLDLWNFLDIPRSRLVKYPLLLREILRHTPNDNPDQQHLEEAINIIQGIVAEINTKTGESECRYYKERLLYLEEGQKDSLIDSSRVLCCHGELKNNRGVKLHVFLFQEVLVITRAVTHNEQLCYQLYRQPIPVKDLLLEDLQDGEVRLGGSLRGAFSNNERIKNFFRVSFKNGSQSQTHSLQANDTFNKQQWLNCIRQAKETVLCAAGQAGVLDSEGSFLNPTTGSRELQGETKLEQMDQSDSESDCSMDTSEVSLDCERMEQTDSSCGNSRHGESNV
B6: Pleckstrin homology domain-containing family N member 1 (Homo sapiens), Q494U1 (parent)
chain: MGNSHCVPQAPRRLRASFSRKPSLKGNREDSARMSAGLPGPEAARSGDAAANKLFHYIPGTDILDLENQRENLEQPFLSVFKKGRRRVPVRNLGKVVHYAKVQLRFQHSQDVSDCYLELFPAHLYFQAHGSEGLTFQGLLPLTELSVCPLEGSREHAFQITGPLPAPLLVLCPSRAELDRWLYHLEKQTALLGGPRRCHSAPPQRRLTRLRTASGHEPGGSAVCASRVKLQHLPAQEQWDRLLVLYPTSLAIFSEELDGLCFKGELPLRAVHINLEEKEKQIRSFLIEGPLINTIRVVCASYEDYGHWLLCLRAVTHREGAPPLPGAESFPGSQVMGSGRGSLSSGGQTSWDSGCLAPPSTRTSHSLPESSVPSTVGCSSQHTPDQANSDRASIGRRRTELRRSGSSRSPGSKARAEGRGPVTPLHLDLTQLHRLSLESSPDAPDHTSETSHSPLYADPYTPPATSHRRVTDVRGLEEFLSAMQSARGPTPSSPLPSVPVSVPASDPRSCSSGPAGPYLLSKKGALQSRAAQRHRGSAKDGGPQPPDAPQLVSSAREGSPEPWLPLTDGRSPRRSRDPGYDHLWDETLSSSHQKCPQLGGPEASGGLVQWI

Variants of B1 are the subject of one experiment. The settings on record: with ccnd1_human CCND1, P24385.
Sequence of ccnd1_human CCND1, P24385 (P24385 whole entry): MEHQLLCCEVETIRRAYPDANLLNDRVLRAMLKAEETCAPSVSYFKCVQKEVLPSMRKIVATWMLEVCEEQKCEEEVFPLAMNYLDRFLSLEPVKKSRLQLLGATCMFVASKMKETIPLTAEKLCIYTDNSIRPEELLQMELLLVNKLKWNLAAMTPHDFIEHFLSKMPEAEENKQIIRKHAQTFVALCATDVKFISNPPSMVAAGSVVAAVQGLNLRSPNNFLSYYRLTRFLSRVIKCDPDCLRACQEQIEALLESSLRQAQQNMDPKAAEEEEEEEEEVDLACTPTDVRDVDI
Regarding N41S, the “effect of a mutation on the interaction” value was “with no effect”.

Variants of B1 are the subject of the next experiment. Conditions: with ccnd1_human CCND1, P24385. This is another data set of the same source.
As for G43E, the “effect of a mutation on the interaction” value is listed as “with no effect”.
For S267P, the “effect of a mutation on the interaction” value is reported as “with no effect”.

Variants of B1 are the subject of another experiment. The settings on record: with ccnd2_human CCND2, P30279.
Sequence of ccnd2_human CCND2, P30279 (P30279 whole entry): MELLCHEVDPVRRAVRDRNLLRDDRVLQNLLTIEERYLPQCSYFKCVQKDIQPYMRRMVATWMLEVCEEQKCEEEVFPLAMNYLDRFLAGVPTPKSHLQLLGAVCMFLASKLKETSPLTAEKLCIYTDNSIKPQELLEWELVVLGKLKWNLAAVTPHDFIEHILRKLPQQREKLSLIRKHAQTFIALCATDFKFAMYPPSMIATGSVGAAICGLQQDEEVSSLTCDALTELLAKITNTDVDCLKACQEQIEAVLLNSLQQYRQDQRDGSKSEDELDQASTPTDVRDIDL
As for G43E, the “effect of a mutation on the interaction” value is “with no effect”.
Same read-out and setting: in the case of S267P it was “with no effect”.

Another experiment covers variants of B1. Conditions: with cdn2c_human CDKN2C.
Consider G43E, for which the “effect of a mutation on the interaction” value was “with no effect”.
Same read-out and setting: then S267P, with “with no effect”.

In the next experiment the parent is B1. Conditions: with ccnd3_human CCND3, P30281.
Sequence of ccnd3_human CCND3, P30281 (P30281 whole entry): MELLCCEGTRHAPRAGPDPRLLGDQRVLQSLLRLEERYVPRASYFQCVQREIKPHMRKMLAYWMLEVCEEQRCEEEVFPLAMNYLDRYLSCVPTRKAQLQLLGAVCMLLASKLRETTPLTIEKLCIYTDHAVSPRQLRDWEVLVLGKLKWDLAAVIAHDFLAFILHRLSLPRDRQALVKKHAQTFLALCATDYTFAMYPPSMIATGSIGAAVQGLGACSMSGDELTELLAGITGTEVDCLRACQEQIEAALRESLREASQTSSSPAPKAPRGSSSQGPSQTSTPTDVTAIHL
Regarding G43E, the “effect of a mutation on the interaction” value is “with no effect”.
Still for that read-out and setting: in the case of S267P it was “with no effect”.

Variants of B1 are the subject of a further experiment. Conditions: with cdn2b_human CDKN2B.
With R209C, the “effect of a mutation on the interaction” value was “with no effect”.

The variants in a further experiment derive from B1. The settings on record: with ccnd3_human CCND3, P30281. The source holds these as a separate data set.
Regarding R209C, the “effect of a mutation on the interaction” value is recorded as “with no effect”.

A further experiment covers variants of B1. Conditions: with cdn2c_human CDKN2C. The source holds these as a separate data set.
Take R209C: the “effect of a mutation on the interaction” value is given as “with no effect”.

A further experiment covers variants of B2. The settings on record: with dnja3_human DNAJA3, Q96EY1.
Sequence of dnja3_human DNAJA3, Q96EY1 (Q96EY1 whole entry): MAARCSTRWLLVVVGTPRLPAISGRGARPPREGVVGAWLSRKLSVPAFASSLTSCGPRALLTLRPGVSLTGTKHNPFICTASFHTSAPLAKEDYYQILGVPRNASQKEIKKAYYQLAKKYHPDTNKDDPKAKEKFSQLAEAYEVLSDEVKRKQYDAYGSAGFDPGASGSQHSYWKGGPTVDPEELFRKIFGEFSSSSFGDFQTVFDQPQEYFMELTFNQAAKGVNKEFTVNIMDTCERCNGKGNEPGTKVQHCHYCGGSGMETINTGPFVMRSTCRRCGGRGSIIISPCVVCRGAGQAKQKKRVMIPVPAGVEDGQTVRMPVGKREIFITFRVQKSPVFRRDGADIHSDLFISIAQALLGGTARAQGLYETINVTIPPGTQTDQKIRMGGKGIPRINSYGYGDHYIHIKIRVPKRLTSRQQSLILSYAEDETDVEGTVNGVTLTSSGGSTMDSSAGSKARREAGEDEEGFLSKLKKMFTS
As for A178T, the “effect of a mutation on the interaction” value is reported as “with no effect”.

Another experiment covers variants of B2. Conditions: with cep70_human CEP70, Q8NHQ1.
Sequence of cep70_human CEP70, Q8NHQ1 (Q8NHQ1 whole entry): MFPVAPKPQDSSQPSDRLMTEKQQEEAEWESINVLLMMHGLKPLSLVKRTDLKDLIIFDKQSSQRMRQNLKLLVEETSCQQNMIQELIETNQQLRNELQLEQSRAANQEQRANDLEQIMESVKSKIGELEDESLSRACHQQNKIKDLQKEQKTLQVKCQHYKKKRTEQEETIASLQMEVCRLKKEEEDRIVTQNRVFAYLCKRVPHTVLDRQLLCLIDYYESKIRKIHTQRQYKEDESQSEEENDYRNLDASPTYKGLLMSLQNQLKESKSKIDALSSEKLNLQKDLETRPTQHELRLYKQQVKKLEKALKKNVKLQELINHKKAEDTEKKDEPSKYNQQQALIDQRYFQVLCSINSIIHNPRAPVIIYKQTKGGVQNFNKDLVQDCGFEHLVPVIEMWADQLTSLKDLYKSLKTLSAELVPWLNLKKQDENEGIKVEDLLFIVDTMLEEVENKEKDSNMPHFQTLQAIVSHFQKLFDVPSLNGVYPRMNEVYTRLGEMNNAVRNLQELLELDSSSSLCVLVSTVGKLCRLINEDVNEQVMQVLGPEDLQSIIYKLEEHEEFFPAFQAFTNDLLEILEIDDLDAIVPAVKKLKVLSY
On to A178T, for which the “effect of a mutation on the interaction” value is “with no effect”.

In another experiment the parent is B2. The settings on record: with ikzf1_human IKZF1, Q13422.
Sequence of ikzf1_human IKZF1, Q13422 (Q13422 whole entry): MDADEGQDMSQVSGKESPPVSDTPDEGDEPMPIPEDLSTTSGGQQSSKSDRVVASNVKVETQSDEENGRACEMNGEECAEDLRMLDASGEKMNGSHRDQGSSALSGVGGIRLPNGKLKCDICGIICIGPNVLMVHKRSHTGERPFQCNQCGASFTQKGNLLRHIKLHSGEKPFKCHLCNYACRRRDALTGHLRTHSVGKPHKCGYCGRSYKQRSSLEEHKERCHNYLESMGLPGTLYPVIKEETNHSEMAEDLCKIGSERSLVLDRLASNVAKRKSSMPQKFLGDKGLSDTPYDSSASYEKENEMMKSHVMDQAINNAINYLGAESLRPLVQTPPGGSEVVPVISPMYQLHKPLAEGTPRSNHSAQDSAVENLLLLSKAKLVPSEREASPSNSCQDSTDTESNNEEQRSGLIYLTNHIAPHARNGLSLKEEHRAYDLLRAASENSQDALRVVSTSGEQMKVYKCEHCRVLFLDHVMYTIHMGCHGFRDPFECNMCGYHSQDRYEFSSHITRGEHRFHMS
Regarding A178T, the “effect of a mutation on the interaction” value is given as “with no effect”.

In another experiment the parent is B3. The settings on record: with ercc3_human ERCC3, P19447.
Sequence of ercc3_human ERCC3, P19447 (P19447 whole entry): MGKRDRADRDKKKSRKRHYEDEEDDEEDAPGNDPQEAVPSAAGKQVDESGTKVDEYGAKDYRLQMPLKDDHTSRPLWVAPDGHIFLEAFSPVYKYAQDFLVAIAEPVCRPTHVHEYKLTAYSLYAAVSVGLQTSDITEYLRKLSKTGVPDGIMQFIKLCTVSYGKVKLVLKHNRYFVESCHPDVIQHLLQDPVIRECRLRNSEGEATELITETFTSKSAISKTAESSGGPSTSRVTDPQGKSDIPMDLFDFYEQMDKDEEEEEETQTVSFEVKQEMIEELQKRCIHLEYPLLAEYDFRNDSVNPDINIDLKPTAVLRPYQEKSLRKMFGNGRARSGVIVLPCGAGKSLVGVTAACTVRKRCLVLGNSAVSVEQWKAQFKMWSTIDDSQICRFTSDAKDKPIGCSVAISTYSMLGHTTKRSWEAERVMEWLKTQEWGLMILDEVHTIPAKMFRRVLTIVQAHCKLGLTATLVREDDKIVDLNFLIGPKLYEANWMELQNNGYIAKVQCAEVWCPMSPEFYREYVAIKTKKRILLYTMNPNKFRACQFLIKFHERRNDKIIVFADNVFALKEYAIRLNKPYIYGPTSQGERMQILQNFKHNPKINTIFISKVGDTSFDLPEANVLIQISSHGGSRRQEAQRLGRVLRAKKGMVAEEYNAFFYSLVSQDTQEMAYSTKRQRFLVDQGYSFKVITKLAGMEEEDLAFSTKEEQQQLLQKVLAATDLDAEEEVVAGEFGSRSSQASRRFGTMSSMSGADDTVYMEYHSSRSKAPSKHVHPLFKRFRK
As to V376I, the “effect of a mutation on the interaction” value is recorded as “with no effect”.

In another experiment the parent is B3. Conditions: with ptk6_human PTK6, Q13882.
With V376I, the “effect of a mutation on the interaction” value is recorded as “with no effect”.

In another experiment the parent is B3. The settings on record: with mk09_human MAPK9, P45984.
For the variant V376I, the “effect of a mutation on the interaction” value is “with no effect”.

Variants of B3 are the subject of the next experiment. The settings on record: with plod3_human PLOD3, O60568.
Sequence of plod3_human PLOD3, O60568 (O60568 whole entry): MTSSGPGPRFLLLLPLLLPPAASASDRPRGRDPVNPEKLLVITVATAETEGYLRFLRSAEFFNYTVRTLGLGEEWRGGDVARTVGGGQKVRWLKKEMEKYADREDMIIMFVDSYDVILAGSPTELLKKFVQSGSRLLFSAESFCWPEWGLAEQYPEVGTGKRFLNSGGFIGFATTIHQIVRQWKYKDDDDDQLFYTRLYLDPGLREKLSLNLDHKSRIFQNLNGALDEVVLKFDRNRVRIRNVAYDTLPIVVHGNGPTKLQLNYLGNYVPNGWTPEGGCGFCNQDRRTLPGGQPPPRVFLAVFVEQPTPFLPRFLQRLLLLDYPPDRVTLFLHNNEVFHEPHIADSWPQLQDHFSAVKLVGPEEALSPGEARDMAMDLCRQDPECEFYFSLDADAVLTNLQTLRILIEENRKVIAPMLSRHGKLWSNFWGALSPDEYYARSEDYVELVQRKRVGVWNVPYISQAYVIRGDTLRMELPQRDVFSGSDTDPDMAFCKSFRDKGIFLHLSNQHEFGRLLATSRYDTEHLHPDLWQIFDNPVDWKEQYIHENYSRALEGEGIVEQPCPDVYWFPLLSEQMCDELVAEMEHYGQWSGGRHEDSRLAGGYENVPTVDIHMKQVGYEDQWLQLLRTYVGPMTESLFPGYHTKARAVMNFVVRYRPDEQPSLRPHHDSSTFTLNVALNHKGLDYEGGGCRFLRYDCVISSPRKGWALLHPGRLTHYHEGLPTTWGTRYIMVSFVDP
In the case of V376I, the “effect of a mutation on the interaction” value is “with no effect”.

Variants of B3 are the subject of another experiment. Conditions: with plod3_human PLOD3, O60568. This is another data set of the same source.
With E507Q, the “effect of a mutation on the interaction” value is listed as “disrupting interaction strength”.

The next experiment covers variants of B4. Conditions: with pch2_human TRIP13, Q15645.
Consider C148R, for which the “effect of a mutation on the interaction” value is listed as “with no effect”.

Variants of B5 are the subject of another experiment. The settings on record: with tri23_human TRIM23, P36406.
Sequence of tri23_human TRIM23, P36406 (P36406 whole entry): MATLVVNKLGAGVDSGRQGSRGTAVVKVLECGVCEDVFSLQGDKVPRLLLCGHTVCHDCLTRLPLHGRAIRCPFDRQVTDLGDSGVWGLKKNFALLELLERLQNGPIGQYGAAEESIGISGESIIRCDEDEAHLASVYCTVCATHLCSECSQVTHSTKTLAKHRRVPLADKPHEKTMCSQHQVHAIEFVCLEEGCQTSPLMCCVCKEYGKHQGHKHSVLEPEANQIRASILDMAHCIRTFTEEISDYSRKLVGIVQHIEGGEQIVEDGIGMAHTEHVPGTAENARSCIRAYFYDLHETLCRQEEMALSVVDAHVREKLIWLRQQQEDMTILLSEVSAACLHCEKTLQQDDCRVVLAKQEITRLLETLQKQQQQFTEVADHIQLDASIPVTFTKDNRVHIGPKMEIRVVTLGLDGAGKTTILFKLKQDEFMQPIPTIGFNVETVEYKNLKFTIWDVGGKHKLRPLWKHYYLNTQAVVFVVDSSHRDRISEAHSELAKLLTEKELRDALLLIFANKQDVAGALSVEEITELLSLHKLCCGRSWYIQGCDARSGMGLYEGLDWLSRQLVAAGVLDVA
With N432S, the “effect of a mutation on the interaction” value is reported as “with no effect”.

In the next experiment the parent is B6. Conditions: with itf2_human TCF4, P15884.
In the case of R487P, the “effect of a mutation on the interaction” value was “with no effect”.

In another experiment the parent is B6. Conditions: with traf1_human TRAF1, Q13077.
Sequence of traf1_human TRAF1, Q13077 (Q13077 whole entry): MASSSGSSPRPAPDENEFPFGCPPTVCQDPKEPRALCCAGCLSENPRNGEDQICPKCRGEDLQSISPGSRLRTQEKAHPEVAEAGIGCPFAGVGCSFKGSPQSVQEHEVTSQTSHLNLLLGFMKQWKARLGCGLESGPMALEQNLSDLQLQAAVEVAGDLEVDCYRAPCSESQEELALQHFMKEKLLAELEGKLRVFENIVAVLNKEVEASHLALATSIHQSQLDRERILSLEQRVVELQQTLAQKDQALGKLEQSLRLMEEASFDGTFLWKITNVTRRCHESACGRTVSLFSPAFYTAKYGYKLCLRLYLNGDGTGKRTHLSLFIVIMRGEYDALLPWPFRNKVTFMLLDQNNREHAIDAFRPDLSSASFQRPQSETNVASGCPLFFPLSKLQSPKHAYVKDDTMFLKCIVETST
Regarding R487P, the “effect of a mutation on the interaction” value is recorded as “with no effect”.

A further experiment covers variants of B6. The settings on record: with taxb1_human TAX1BP1, Q86VP1.
Regarding R487P, the “effect of a mutation on the interaction” value was “with no effect”.
